Data from patent US20140295512A1, “Ketol-Acid Reductoisomerases With Improved Performance Properties” (CALIFORNIA INSTITUTE OF TECHNOLOGY, priority 2011, published 2014).
Several values for one entry are separate records, joined by “and”; a condition that tells them apart may be missing. Equal values may be shown once. Read-outs that look alike come from different tables or passages of the source.

Key:
[1] = KARI assay of purified S. exigua KARI and variants with NADH (Examples 6-9); type: biochemical
Method in brief: (§1)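 Kinetic read of NAD(P)H consumption at 340 nm in 100 mM potassium phosphate pH 7.0 with 1 mM DTT, 2.5 mM (S)-2-acetolactate and 10 mM MgCl2, cofactor 200 μM final. For Michaelis–Menten constants, NADPH was varied 200–12 μM and NADH 200–6 μM.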

[2] = KARI assay in 100-μL scale to measure acetolactate KM value; type: biochemical; conditions: for Km: NADPH, pH 7.0, read-out: KM (S)-2-acetolactate
Experimental: (§2) An assay buffer was prepared containing 100 mM potassium phosphate pH 7.0, 1 mM DTT, 10 mM MgCl2, and 200 μM NADPH (final concentrations). Five μL purified enzyme and 5 μL of varying concentrations of acetolactate (8-0.125 mM final) were placed into a flat-bottom assay plate (Evergreen Scientific). The reactions were initiated by addition of 90 μL assay buffer. The change in absorbance at 340 nm was monitored over 1 min in a plate reader (TECAN).

[3] = test system: S. cerevisiae host strain GEVO3956; experiment: Shake flask isobutanol fermentations with KARI as limiting pathway enzyme; type: cell-based; conditions: mean of 3 experiments
Source text: In this example, a series of KARI genes were individually expressed from a yeast promoter in conjunction with other components of an isobutanol production pathway in yeast such that KARI was the limiting enzyme in the pathway and the amount of isobutanol produced during a fermentation was dependent on the KARI activity level. In this system, the S. cerevisiae host strain GEVO3956 was used to produce isobutanol when supplied with an isobutanol production pathway plasmid expressing ALS and KIVD, and a low copy number plasmid expressing KARI, DHAD, and ADH enzymes.
Shake flask fermentations using GEVO3956 carrying these individual plasmids were performed together with GEVO3956 carrying pGV3022 (derived from pGV3009 but containing the E. coli ilvC-coSc gene expressed from the Sc_PDC1^−350 promoter) and GEVO3956 carrying pGV3012 (equivalent to pGV3009 lacking the Sc_PDC1^−350 promoter and KARI gene) for comparison of isobutanol production. The shake flask fermentations were performed as follows. The strains were grown overnight in 3 mL of YPD medium containing 1% v/v ethanol and 0.1 g/L G418 at 30° C. and 250 rpm. The OD600 of these cultures was determined after overnight growth and the appropriate amount of culture was added to 50 mL of YP medium containing 5% w/v glucose, 1% v/v ethanol. 200 mM MES, pH 6.5, and 0.1 g/L G418 to obtain an OD600 of 0.1 in 250 mL baffled flasks with sleeve caps. Cultures were incubated at 30° C. and 250 rpm overnight. The OD600 of these cultures was determined after overnight growth and the appropriate amount of culture to total 250 ODs was added to 50 mL Falcon tubes and centrifuged at 2700×g for 5 minutes. The supernatant was removed and cells were resuspended in 50 mL of YP medium containing 8% w/v glucose, 1% v/v ethanol, 200 mM MES, pH 6.5, and 0.1 g/L G418 to obtain a final OD600 of 5 OD per ml. At t=0 the OD600 of each flask was determined. The fermentation cultures were incubated at 30° C. and 250 rpm in non-baffled 250 mL flasks with vented screw cap tops. After 24, 48 and 72 hours of incubation, 1.5 mL of culture was removed into 1.5 mL microcentrifuge tubes from each culture. OD600 values were determined from the samples and the remainder of each sample was centrifuged for 10 min at 14,000 rpm in a microcentrifuge and 1 mL of the supernatant was removed to be submitted for gas chromatographic analysis. Analysis of volatile organic compounds, including ethanol and isobutanol, was performed on an Agilent 6890 gas chromatograph (GC) fitted with a 7683B liquid autosampler, a split/splitless injector port, a ZB-FFAP column (Phenomenex 30 m length, 0.32 mm ID, […] film thickness) connected to a flame ionization detector (FID). […]

[4] = KARI assay in 100-μL scale to measure MgCl2 KM value; type: biochemical; conditions: for Km: NADPH, pH 7.0, read-out: KM Mg^2+
Experimental: as §2, with “DTT, 2.5” for “DTT, 10”, “mM (S)-2-acetolactate,” for “mM MgCl2,”, “of MgCl2” for “of acetolactate (8-0.125 mM final)”

[5] = KARI assay of purified S. exigua KARI and variants with NADPH (Examples 6-9); type: biochemical; conditions: for U/mg NADPH (specific activity): cofactor NADPH
Method in brief: as §1

B1: Se1_KARI: Slackia exigua (ATCC 700122) ketol-acid reductoisomerase, wild type, SEQ ID NO: 2 (protein, listed as Slackia exigua)
chain: MSVKTKEKEMAVTILYEQDVDPKVIQGLKVGIIGYGSQGHAHALNLMDSGVDVRVGLREGSSSWKTAEEAGLKVTDMDTAAEEADVIMVLVPDEIQPKVYQEHIAAHLKAGNTLAFAHGFNIHYGYIVPPEDVNVIMCAPKGPGHIVRRQFTEGSGVPDLACVQQDATGNAWDIVLSYCWGVGGARSGIIKATFAEETEEDLFGEQAVLCGGLVELVKAGFETLTEAGYPPELAYFECYHEMKMIVDLMYESGIHFMNYSISNTAEYGEYYAGPKVINEQSREAMKEILKRIQDGSFAQEFVDDCNNGHKRLLEQREAINTHPIETTGAQIRSMFSWIKKED
kcat NADH [1]: 0.40 s⁻¹ | U/mg NADH (specific activity) ([1]; cofactor NADH): 0.15 U/mg | kcat NADH ([1]; listed as Se1_KARI (wt)): 0.40 s⁻¹ | kcat/Km ratio NADH/NADPH (cofactor specificity) ([1]; listed as Se1_KARI (wt)): 0.08 | kcat NADH ([1]; listed as Se1_KARI^his6): 0.4 s⁻¹ | kcat/Km ratio NADH/NADPH (cofactor specificity) ([1]; listed as Se1_KARI^his6): 0.08 | Km ([1]; read-out: Km for cofactor NADH): 45 µM | Ratio NADH/NADPH (U/mg) ([1]; specific activity ratio): 0.47 | KM, fold lower than the Ki for R-DHIV [2]: 10 fold | Km [2]: 170 µM | 48 h isobutanol Titer [3]: 2.82 ± 0.11 g/L | 72 h isobutanol Titer [3]: 4.40 ± 0.34 g/L | Km [4]: 0.7 mM | kcat NADPH [5]: 0.80 s⁻¹ | U/mg NADPH (specific activity) [5]: 0.32 ± 0.03 U/mg | U/mg NADPH (specific activity) ([5]; listed as Se1_KARI (wt)): 0.32 U/mg | U/mg NADPH (specific activity) ([5]; listed as Se1_KARI^his6): 0.32 U/mg and 0.32 ± 0.03 U/mg | kcat NADPH ([5]; listed as Se1_KARI (wt)): 0.80 s⁻¹ | kcat NADPH ([5]; listed as Se1_KARI^his6): 0.8 s⁻¹ | Km ([5]; read-out: Km for cofactor NADPH): < 1000 nM

B2: E. coli IlvC: Escherichia coli ketol-acid reductoisomerase (ilvC), wild type (protein, UniProt P05793 2-491, looked up)
Ketol-acid reductoisomerase …: ANYFNTLNLRQQLAQLGKCRFMGRDEFADGASYLQGKKVVIVGCGAQGLNQGLNMRDSGLDISYALRKEAIAEKRASWRKATENGFKVGTYEELIPQADLVINLTPDKQHSDVVRTVQPLMKDGAALGYSHGFNIVEVGEQIRKDITVVMVAPKCPGTEVREEYKRGFGVPTLIAVHPENDPKGEGMAIAKAWAAATGGHRAGVLESSFVAEVKSDLMGEQTILCGMLQAGSLLCFDKLVEEGTDPAYAEKLIQFGWETITEALKQGGITLMMDRLSNPAKLRAYALSEQLKEIMAPLFQKHMDDIISGEFSSGMMADWANDDKKLLTWREETGKTAFETAPQYEGKIGEQEYFDKGVLMIAMVKAGVELAFETMVDSGIIEESAYYESLHELPLIANTIARKRLYEMNVVISDTAEYGNYLFSYACVPLLKPFMAELQPGDLGKAIPEGAVDNGQLRDVNEAIRSHAIEQVGKKLRGYMTDMKRIAVAG
KM for acetolactate, times higher than KM of S. exigua KARI [2]: 32 fold | KM, fold higher than the Ki for R-DHIV [2]: 3 fold | Km [2]: 300 ± 100 µM | 48 h isobutanol Titer [3]: 3.93 ± 1.16 g/L | 72 h isobutanol Titer [3]: 4.72 ± 0.90 g/L | KM for Mg^2+, times higher than KM of S. exigua KARI [4]: 2.9 fold | Km [4]: 2 ± 0.5 mM
